In general, Kd refers to the concentration at which binding is half-saturated.

Experimental findings from patent US20250027945A1 (University of California, published 2025) are described below.

Sequences and labels used below:
B1: recombinant human RYK protein used in KinExA (receptor, UniProt P34925 46-227, looked up)
chain: AAPAPRPPELQSASAGPSVSLYLSEDEVRRLIGLDAELYYVRNDLISHYALSFSLLVPSETNFLHFTWHAKSKVEYKLGFQVDNVLAMDMPQVNISVQGEVPRTLSVFRVELSCTGKVDSEVMILMQLNLTVNSSKNFTVLNFKRRKMCYKKLEEVKTSALDKNTSRTIYDPVHAAPTTSTR
notes: Legend prints 'RYK2'; also called recombinant human RYK2 protein
B2: 7-H10 anti-human RYK mAb (antibody, V domains shown)
VH: QVQLQQSGAELAKPGTSVKLSCKASGYIFTNYDINWVRQRPEQGLEWIGWIFPGDDSTKYNEKFEGKAALTTDKSSNTAYIQLSRLTSGDSAVYFCTRYHYYGSSLGWSFDVWGAGTSVTVSS
VL: EIVLTQSPALMAASPGEKVTITCSVSSRISSINLHWYQQKSETSPKTWIYGTSNLASGVPSRFSGSGSGTSYSLTISNMEAEDAATYYCQQWSSYPYTFGGGTKVEIK
notes: Mouse hybridoma mAb, kappa light chain, detected with anti-mouse IgG; also called mAb 7-H10
B3: 3C12 (antibody, V domains shown)
VH: QVQLKESGPGLVAPSQSLSITCTVSGFSLNGYGVNWVRQPPGKDLEWLGMIWGDGITEFNSALKSRLSISKDNSKSQVFLKMNSLQTEDTARYYCVRQGSGVWFAYWGQGTLVS
VL: DVLVTQTPLSLPVSLGDQASISCRSSQTIVHSNGNTYLEWYLQKPGQSPKLLIYKVSNRFSGVPDRFSGSGSGTDFTLKISRVEAEDLGVYYCFQGSHVPYTFGGGTKLEIK
notes: anti-human RYK mAb; also called 3C12 mAb
B4: 11E9 (antibody, V domains shown)
VH: QVQLKESGPGLVAPSQSLSITCTVSGFSLNGYGVNWVRQPPGKDLEWLGMIWGDGITEFNSALKSRLSISKDNSKSQVFLKMNSLQTEDTARYYCVRQGSGVWFAYWGQGTLS
VL: B3 VL with S61C
notes: anti-human RYK mAb; also called 11E9 mAb

Substitutions are numbered along the chain they refer to.

The target of the experiment “7-H10 anti-human RYK mAb” is B2. As to the kind of experiment: KinExA 3200: free mAb captured on RYK-coated particles in the presence of rising molar concentration of soluble RYK. As for the experimental part: (§1) Analysis was performed using a KinExA 3200 instrument. FIG. 7A: The proportion of anti-human RYK mAb bound to particles coated with RYK protein (y-axis) in the presence of increasing molar (M) concentration of soluble RYK competitor (x-axis) is shown for 2-D11 mAb (upper left panel) and 7-H10 mAb (lower left panel).

In experiment [1] the target is T1, recombinant extracellular protein of mouse RYK (mouse, UniProt Q01887 35-211).
T1 construct: also called mRYK; not shown: rabbit IgG tag for purification
Kind of experiment: immunoblot of recombinant extracellular protein on nylon membrane. As for the experimental part:
(§2) FIG. 4A illustrates experiments in which binding of 2-D11, 7-H10, 3-C12, 11-E9, 6-B5, 6-D10 and sheep anti-RYK mAb was assessed using recombinant human RYK proteins (SEQ ID NO:129) in which one amino acid that differs between human and mouse RYK within the extracellular domain was replaced with the corresponding amino acid of mouse RYK. Each recombinant protein was transferred onto nylon membrane, probed with the indicated anti-RYK mAb or Sheep anti-RYK Ab, and detected with an anti-mouse IgG or donkey-anti-sheep antibody conjugated with horse radish peroxidase. […]
The anti-human RYK mAbs, 2-D11 and 7-H10, appear specific for an amino terminal epitope of human Ryk (residues 46-57) that are distinct from those in mouse Ryk (FIG. 3); these mAbs also bind mutant forms of Ryk containing amino acid substitutions in human Ryk at positions that differ from that of the highly homologous mouse Ryk to assimilate mouse Ryk at the site of substitution, with amino acid sequence shown in FIG. 3, as shown by immunoblot analyses of recombinant extracellular proteins of human or mouse or each of the various mutant forms of human Ryk (FIG. 4) For this, the binding of 2-D11, 7-H10, or Sheep anti-RYK mAb was assessed using recombinant extracellular RYK proteins as specified in the Key. […]
Background: A western blot detects proteins with antibodies after separation by electrophoresis.

Experiment [2] concerns the target B1. Kind of experiment: KinExA 3200, soluble RYK competitor against RYK-coated particles. The procedure: as §1
Background: A kinetic exclusion assay measures how much of one partner remains free in solution.

The target in experiment [3] is T1, recombinant extracellular protein of …. Kind of experiment: dot blot of recombinant RYK proteins (rabbit IgG tag) on nylon membrane, probed with the mAb, anti-mouse IgG-HRP. As for the experimental part: as §2, with “FIGS. 4A-4B illustrate the […] of amino acids required for binding of anti-human RYK mAb to the extracellular domain of human RYK (SEQ ID NO:129). FIG.” for “FIG.”, “peroxidase. Rabbit anti-IgG blotting is a positive for protein blotting and detection as recombinant proteins have a rabbit IgG tag for purification. Alignment of the protein sequences of the extracellular domain of human and mouse RYK are shown in the lower panel and the boxed amino acids indicate the amino acids changes made for each recombinant protein.” for “peroxidase.”

Regarding B1, the “IC50 (read off the curve)” value with 7-H10 anti-human RYK mAb is about 20 nM.

Regarding B2, the binding result in experiment [1] was “no binding”. In experiment [2], the Kd is 10.6 nM. With B3, the binding result in experiment [3] was “no binding”. The same measure, in the same setting: the entry for B4 is “no binding”.
